T1: PadR WT (Bacillus subtilis, UniProt E0TW95 1-182)
T1 sequence: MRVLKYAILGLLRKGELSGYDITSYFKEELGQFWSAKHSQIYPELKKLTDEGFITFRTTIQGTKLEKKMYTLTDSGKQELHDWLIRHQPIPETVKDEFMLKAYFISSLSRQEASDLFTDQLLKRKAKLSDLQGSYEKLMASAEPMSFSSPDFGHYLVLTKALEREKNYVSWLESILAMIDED

T2: PadR (Bacillus spizizenii, UniProt E0TW95)
T2 sequence (E0TW95 1-182): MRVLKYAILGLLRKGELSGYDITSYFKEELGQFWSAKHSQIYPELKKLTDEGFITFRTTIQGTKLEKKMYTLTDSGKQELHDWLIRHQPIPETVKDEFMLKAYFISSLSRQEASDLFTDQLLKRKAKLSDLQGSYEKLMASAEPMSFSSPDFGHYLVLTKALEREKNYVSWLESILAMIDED

B1: operator T18G/T18'G (dsDNA)
DNA 1: CGGAACATGTCAATAGTGACATGATTAC
DNA 2: GTAATCATGTCACTATTGACATGTTCCG
B2: operator T8A/T8'A (dsDNA)
DNA 1: CGGAACAAGTAAATAGTTACTTGATTAC
DNA 2: GTAATCAAGTAACTATTTACTTGTTCCG
B3: operator G9T/G9'T (dsDNA)
DNA 1: CGGAACATTTAAATAGTTAAATGATTAC
DNA 2: GTAATCATTTAACTATTTAAATGTTCCG
B4: operator G9A/G9'A (dsDNA)
DNA 1: CGGAACATATAAATAGTTATATGATTAC
DNA 2: GTAATCATATAACTATTTATATGTTCCG
B5: operator C6G/C6'G (dsDNA)
DNA 1: CGGAAGATGTAAATAGTTACATCATTAC
DNA 2: GTAATGATGTAACTATTTACATCTTCCG
B6: operator C6T/C6'T (dsDNA)
DNA 1: CGGAATATGTAAATAGTTACATAATTAC
DNA 2: GTAATTATGTAACTATTTACATATTCCG
B7: operator T10A/T10'A (dsDNA)
DNA 1: CGGAACATGAAAATAGTTTCATGATTAC
DNA 2: GTAATCATGAAACTATTTTCATGTTCCG
B8: operator T18C/T18'C (dsDNA)
DNA 1: CGGAACATGTGAATAGTCACATGATTAC
DNA 2: GTAATCATGTGACTATTCACATGTTCCG
B9: operator C6A/C6'A (dsDNA)
DNA 1: CGGAAAATGTAAATAGTTACATTATTAC
DNA 2: GTAATAATGTAACTATTTACATTTTCCG
B10: operator T17A/T17'A (dsDNA)
DNA 1: CGGAACATGTATATAGATACATGATTAC
DNA 2: GTAATCATGTATCTATATACATGTTCCG
B11: bridge operator (dsDNA)
DNA 1: AGTTACATGATTACCGGAACATGTAAAT
DNA 2: ATTTACATGTTCCGGTAATCATGTAACT
B12: phenolic acid decarboxylase regulator (PadR) from Bacillus subtilis, wild type (natural protein, UniProt E0TW95 1-182, looked up)
chain: MRVLKYAILGLLRKGELSGYDITSYFKEELGQFWSAKHSQIYPELKKLTDEGFITFRTTIQGTKLEKKMYTLTDSGKQELHDWLIRHQPIPETVKDEFMLKAYFISSLSRQEASDLFTDQLLKRKAKLSDLQGSYEKLMASAEPMSFSSPDFGHYLVLTKALEREKNYVSWLESILAMIDED

The results in this text go back to article PMC5728393 (Nucleic Acids Research, 2017).

The term Kd denotes the free concentration of one partner at which half of the binding sites on the other are occupied at equilibrium, for simple one-to-one binding. A higher Kd goes with weaker binding. What is called stoichiometry N is the number of molecules, sites or subunits per partner or assembly.

One series has as its target T1, PadR WT. The experiment in a line: fluorescence polarization.
Settings: not given
For orientation: Fluorescence polarisation rises when a labelled molecule tumbles more slowly, as on binding a larger partner.
Take B1: the Kd was 9.9 ± 1.7 nM. In turn, B2 had a Kd of 41 ± 4 nM.

Molecule B3 had a Kd of 37.8 ± 6.7 nM. On to B4, for which the affinity, expressed as Kd, was 15.7 ± 2.9 nM. The same measure, in the same setting: then B5, with 200 ± 21.7 nM; and B6, with 160 ± 6.9 nM; and B7, with 11.6 ± 1.3 nM. The same measure, in the same setting: then B8, with 20.8 ± 1.9 nM. Still for that read-out and setting: the value for B9 was 312 ± 45.5 nM. In turn, B10 had an equilibrium dissociation constant (Kd) of 9.4 ± 1.4 nM. On the same count and under the same terms, the value for B11 was 8.9 ± 2.1 nM.

Another series has as its target T2, PadR. Nature of the series: X-ray crystal structure of the complex. The conditions noted are these: 10 mM ferulic acid soak, 22% PEG 3350, 0.1 M sodium acetate pH 4.0; interdomain pocket. The series is classed as binding.
For `COc1cc(/C=C/C(=O)O)ccc1O` [ferulic acid], the “X-ray crystal structure of the complex (soaked crystals)” value is given as “we also determined a PadR structure in complex with ferulic acid (PadR3FA)”.

Another series deals with the molecule itself. The experiment in a line: SEC.
Settings: not given
B12: the “stoichiometry N” value worked out at 2.

The next series deals with T2, PadR. Nature of the series: isothermal titration calorimetry. The series is classed as binding.
Settings: not given
(In ITC the heat of successive injections is recorded.)
The molecule `O=C(O)/C=C/c1ccc(O)cc1` [p-coumaric acid] showed a Kd of 6200 ± 100 nM.
